Test results: the RNAGym collection of RNA variant scans (doi:10.1093/molbev/msab373)

B1: Azoarcus group I ribozyme (parent)
chain: GUGCCUUGCGCCGGGAAACCACGCAAGGGAUGGUGUCAAAUUCGGCGAAACCUAAGCGCCCGCCCGGGCGUAUGGCAACGCCGAGCCAAGCUUCGGCGCCUGCGCCGAUGAAGGUGUAGAGACUAGACGGCACCCACCUAAGGCAAACGCUAUGGUGAAGGCAUAGUCCAGGGAGUGGCGAAAGUCACACAAACCGG

Variants of: B1
Assay: reverse-splicing fitness (ratio to wild type); higher = more active; in vitro selection; Mg2+ level not given
Method in brief: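 An in vitro group I ribozyme library with randomized positions was T7-transcribed and gel-purified. In triplicate, 10 pmol RNA in EPPS pH 7.5 was reacted with 50 pmoles of a 30-nt RNA substrate for 1 h at 37 °C across several added MgCl2 levels (1–48 mM), then stopped with EDTA. Products were reverse transcribed from a substrate-complementary primer, PCR-amplified and sequenced (HiSeq 4000). Fitness is a variant's read proportion after selection over that before, normalised to wild type.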

Row | Variant | reverse-splicing fitness
1 | GUGCCUUGCGCCGGGAAACCACGCAAGGGAUGGUGUCAAAUUCGGCGAAACCUAAGCGCCCGCCCGGGCGUAUGGCAACGCAGAGCCAAGCUUCGGCGCCUGCGCCGAUGGAGGUGUAGAGACUAGACGGCACCCACCUAAGGCGAACGGUAUGGUGAAGGCAUAGUCGAGGGAGAGGCGAAAGUCACACAAACCGG [C82A A111G A145G C150G C169G U176A] | 0.0112
2 | GUGCCUUGCGCCGGGAAACCACGCAAGGGAUGGUGUCAAAUUCGGCGAAACCUAAGCGCCCGCCCGGGCGUAUGGCAACGCAGAGCCAAGCUUCGGCGCCUGCGCCGAUGGAGGUGUAGAGACUAGACGGCACCCACCUAAGGCGAACGAUAUGGUGAAGGCAUAGUCUAGGGAGGGGCGAAAGUCACACAAACCGG [C82A A111G A145G C150A C169U U176G] | 0.00672
3 | GUGCCUUGCGCCGGGAAACCACGCAAGGGAUGGUGUCAAAUUCGGCGAAACCUAAGCGCCCGCCCGGGCGUAUGGCAACGCAGAGCCAAGCUUCGGCGCCUGCGCCGAUGGAGGUGUAGAGACUAGACGGCACCCACCUAAGGCGAACGAUAUGGUGAAGGCAUAGUCUAGGGAGAGGCGAAAGUCACACAAACCGG [C82A A111G A145G C150A C169U U176A] | 0.0159
4 | GUGCCUUGCGCCGGGAAACCACGCAAGGGAUGGUGUCAAAUUCGGCGAAACCUAAGCGCCCGCCCGGGCGUAUGGCAACGCAGAGCCAAGCUUCGGCGCCUGCGCCGAUGGAGGUGUAGAGACUAGACGGCACCCACCUAAGGCGAACGAUAUGGUGAAGGCAUAGUCUAGGGAGCGGCGAAAGUCACACAAACCGG [C82A A111G A145G C150A C169U U176C] | 0.0164
5 | GUGCCUUGCGCCGGGAAACCACGCAAGGGAUGGUGUCAAAUUCGGCGAAACCUAAGCGCCCGCCCGGGCGUAUGGCAACGCAGAGCCAAGCUUCGGCGCCUGCGCCGAUGGAGGUGUAGAGACUAGACGGCACCCACCUAAGGCGAACGAUAUGGUGAAGGCAUAGUCAAGGGAGGGGCGAAAGUCACACAAACCGG [C82A A111G A145G C150A C169A U176G] | 0.00749
6 | GUGCCUUGCGCCGGGAAACCACGCAAGGGAUGGUGUCAAAUUCGGCGAAACCUAAGCGCCCGCCCGGGCGUAUGGCAACGCAGAGCCAAGCUUCGGCGCCUGCGCCGAUGGAGGUGUAGAGACUAGACGGCACCCACCUAAGGCGAACGAUAUGGUGAAGGCAUAGUCAAGGGAGCGGCGAAAGUCACACAAACCGG [C82A A111G A145G C150A C169A U176C] | 0.0215
7 | GUGCCUUGCGCCGGGAAACCACGCAAGGGAUGGUGUCAAAUUCGGCGAAACCUAAGCGCCCGCCCGGGCGUAUGGCAACGCAGAGCCAAGCUUCGGCGCCUGCGCCGAUGGAGGUGUAGAGACUAGACGGCACCCACCUAAGGCGAACGAUAUGGUGAAGGCAUAGUCAAGGGAGAGGCGAAAGUCACACAAACCGG [C82A A111G A145G C150A C169A U176A] | 0.0216
8 | GUGCCUUGCGCCGGGAAACCACGCAAGGGAUGGUGUCAAAUUCGGCGAAACCUAAGCGCCCGCCCGGGCGUAUGGCAACGCAGAGCCAAGCUUCGGCGCCUGCGCCGAUGGAGGUGUAGAGACUAGACGGCACCCACCUAAGGCGAACGAUAUGGUGAAGGCAUAGUCCAGGGAGUGGCGAAAGUCACACAAACCGG [C82A A111G A145G C150A] | 0.0514
9 | GUGCCUUGCGCCGGGAAACCACGCAAGGGAUGGUGUCAAAUUCGGCGAAACCUAAGCGCCCGCCCGGGCGUAUGGCAACGCAGAGCCAAGCUUCGGCGCCUGCGCCGAUGGAGGUGUAGAGACUAGACGGCACCCACCUAAGGCGAACGGUAUGGUGAAGGCAUAGUCCAGGGAGUGGCGAAAGUCACACAAACCGG [C82A A111G A145G C150G] | 0.0329
10 | GUGCCUUGCGCCGGGAAACCACGCAAGGGAUGGUGUCAAAUUCGGCGAAACCUAAGCGCCCGCCCGGGCGUAUGGCAACGCAGAGCCAAGCUUCGGCGCCUGCGCCGAUGGAGGUGUAGAGACUAGACGGCACCCACCUAAGGCGAACGAUAUGGUGAAGGCAUAGUCUAGGGAGUGGCGAAAGUCACACAAACCGG [C82A A111G A145G C150A C169U] | 0.0109
11 | GUGCCUUGCGCCGGGAAACCACGCAAGGGAUGGUGUCAAAUUCGGCGAAACCUAAGCGCCCGCCCGGGCGUAUGGCAACGCAGAGCCAAGCUUCGGCGCCUGCGCCGAUGGAGGUGUAGAGACUAGACGGCACCCACCUAAGGCGAACGAUAUGGUGAAGGCAUAGUCAAGGGAGUGGCGAAAGUCACACAAACCGG [C82A A111G A145G C150A C169A] | 0.0118
12 | GUGCCUUGCGCCGGGAAACCACGCAAGGGAUGGUGUCAAAUUCGGCGAAACCUAAGCGCCCGCCCGGGCGUAUGGCAACGCAGAGCCAAGCUUCGGCGCCUGCGCCGAUGGAGGUGUAGAGACUAGACGGCACCCACCUAAGGCGAACGAUAUGGUGAAGGCAUAGUCGAGGGAGUGGCGAAAGUCACACAAACCGG [C82A A111G A145G C150A C169G] | 0.00998
13 | GUGCCUUGCGCCGGGAAACCACGCAAGGGAUGGUGUCAAAUUCGGCGAAACCUAAGCGCCCGCCCGGGCGUAUGGCAACGCAGAGCCAAGCUUCGGCGCCUGCGCCGAUGGAGGUGUAGAGACUAGACGGCACCCACCUAAGGCCAACGCUAUGGUGAAGGCAUAGUCUAGGGAGGGGCGAAAGUCACACAAACCGG [C82A A111G A145C C169U U176G] | 0.00571
14 | GUGCCUUGCGCCGGGAAACCACGCAAGGGAUGGUGUCAAAUUCGGCGAAACCUAAGCGCCCGCCCGGGCGUAUGGCAACGCAGAGCCAAGCUUCGGCGCCUGCGCCGAUGGAGGUGUAGAGACUAGACGGCACCCACCUAAGGCCAACGCUAUGGUGAAGGCAUAGUCUAGGGAGAGGCGAAAGUCACACAAACCGG [C82A A111G A145C C169U U176A] | 0.013
15 | GUGCCUUGCGCCGGGAAACCACGCAAGGGAUGGUGUCAAAUUCGGCGAAACCUAAGCGCCCGCCCGGGCGUAUGGCAACGCAGAGCCAAGCUUCGGCGCCUGCGCCGAUGGAGGUGUAGAGACUAGACGGCACCCACCUAAGGCCAACGCUAUGGUGAAGGCAUAGUCUAGGGAGCGGCGAAAGUCACACAAACCGG [C82A A111G A145C C169U U176C] | 0.0113
